Where a chain is given by its changes, count along the chain named. Numbered stars: 1 amine (or outer) side, 2 acyl side, 3 side chain; on linkers, the order of the positions; unused ones are H or OH. Square brackets hold non-standard residues; d marks the D form. Side chains are listed from the residue outwards. Ends that are not written are not given here. * marks the point of attachment. C20 diacid = O=C(O)CCCCCCCCCCCCCCCCCCC(=O)*; C18 diacid = O=C(O)CCCCCCCCCCCCCCCCC(=O)*; γGlu = O=C(O)[C@H](CCC(=O)[*:2])N[*:1]; AEEA = NCCOCCOCC(=O)O; Aib = CC(C)(N)C(=O)O
B1: Example 333 (peptide)
peptide: YXEGTFTSDYSIXLDKKAQXEFIEYLIEGGPSSGAPPPS
modifications: Aib2, αMeL13, K17 conjugated to (2-[2-(2-Amino-ethoxy)-ethoxy]-acetyl)2-(γ-Glu)-CO-(CH2)18-CO2H, Aib20, C-terminal amide (NH2)
B2: Example 334 (peptide)
peptide: B1 peptide with Y1X, E21A
modifications: not fully specified; D-Tyr1, Aib2, αMeL13, K17 conjugated to (2-[2-(2-Amino-ethoxy)-ethoxy]-acetyl)2-(γ-Glu)-CO-(CH2)18-CO2H, Aib20, C-terminal amide (NH2)
B3: Example 290 (peptide)
peptide: B1 peptide with Y1X, E28A
modifications: D-Tyr1, Aib2, αMeL13, K17 conjugated to (2-[2-(2-Amino-ethoxy)-ethoxy]-acetyl)2-(γ-Glu)-CO-(CH2)18-CO2H, Aib20, C-terminal amide (NH2)
B4: Example 336 (peptide)
peptide: B1 peptide with Y1X, F6X, E21A
modifications: not fully specified; D-Tyr1, Aib2, αMeF(2F)6, αMeL13, K17 conjugated to (2-[2-(2-Amino-ethoxy)-ethoxy]-acetyl)2-(γ-Glu)-CO-(CH2)18-CO2H, Aib20, C-terminal amide (NH2)
B5: Example 330 (peptide)
peptide: Y[Aib]EGTFTSDYSILLDEK([AEEA-AEEA-γGlu-C20 diacid])AQ[Aib]AFIEYLIAGGPSSGAPPPS-NH2
modifications: N-terminus assumed
SMILES: CC[C@H](C)[C@H](NC(=O)[C@H](CC(C)C)NC(=O)[C@H](Cc1ccc(O)cc1)NC(=O)[C@H](CCC(=O)O)NC(=O)[C@@H](NC(=O)[C@H](Cc1ccccc1)NC(=O)[C@H](C)NC(=O)C(C)(C)NC(=O)[C@H](CCC(N)=O)NC(=O)[C@H](C)NC(=O)[C@H](CCCCNC(=O)COCCOCCNC(=O)COCCOCCNC(=O)CC[C@H](NC(=O)CCCCCCCCCCCCCCCCCCC(=O)O)C(=O)O)NC(=O)[C@H](CCC(=O)O)NC(=O)[C@H](CC(=O)O)NC(=O)[C@H](CC(C)C)NC(=O)[C@H](CC(C)C)NC(=O)[C@@H](NC(=O)[C@H](CO)NC(=O)[C@H](Cc1ccc(O)cc1)NC(=O)[C@H](CC(=O)O)NC(=O)[C@H](CO)NC(=O)[C@@H](NC(=O)[C@H](Cc1ccccc1)NC(=O)[C@@H](NC(=O)CNC(=O)[C@H](CCC(=O)O)NC(=O)C(C)(C)NC(=O)[C@@H](N)Cc1ccc(O)cc1)[C@@H](C)O)[C@@H](C)O)[C@@H](C)CC)[C@@H](C)CC)C(=O)N[C@@H](C)C(=O)NCC(=O)NCC(=O)N1CCC[C@H]1C(=O)N[C@@H](CO)C(=O)N[C@@H](CO)C(=O)NCC(=O)N[C@@H](C)C(=O)N1CCC[C@H]1C(=O)N1CCC[C@H]1C(=O)N1CCC[C@H]1C(=O)N[C@@H](CO)C(N)=O
B6: Example 272 (peptide)
peptide: Y[Aib]EGTFTSDYSILLDKK([AEEA-AEEA-γGlu-C18 diacid])AQ[Aib]AFIEYLIAGGPSSG-NH2
modifications: N-terminus assumed
SMILES: CC[C@H](C)[C@H](NC(=O)[C@H](CC(C)C)NC(=O)[C@H](Cc1ccc(O)cc1)NC(=O)[C@H](CCC(=O)O)NC(=O)[C@@H](NC(=O)[C@H](Cc1ccccc1)NC(=O)[C@H](C)NC(=O)C(C)(C)NC(=O)[C@H](CCC(N)=O)NC(=O)[C@H](C)NC(=O)[C@H](CCCCNC(=O)COCCOCCNC(=O)COCCOCCNC(=O)CC[C@H](NC(=O)CCCCCCCCCCCCCCCCC(=O)O)C(=O)O)NC(=O)[C@H](CCCCN)NC(=O)[C@H](CC(=O)O)NC(=O)[C@H](CC(C)C)NC(=O)[C@H](CC(C)C)NC(=O)[C@@H](NC(=O)[C@H](CO)NC(=O)[C@H](Cc1ccc(O)cc1)NC(=O)[C@H](CC(=O)O)NC(=O)[C@H](CO)NC(=O)[C@@H](NC(=O)[C@H](Cc1ccccc1)NC(=O)[C@@H](NC(=O)CNC(=O)[C@H](CCC(=O)O)NC(=O)C(C)(C)NC(=O)[C@@H](N)Cc1ccc(O)cc1)[C@@H](C)O)[C@@H](C)O)[C@@H](C)CC)[C@@H](C)CC)C(=O)N[C@@H](C)C(=O)NCC(=O)NCC(=O)N1CCC[C@H]1C(=O)N[C@@H](CO)C(=O)N[C@@H](CO)C(=O)NCC(N)=O
B7: Example 300 (peptide)
peptide: YXEGTFTSDYSIXLDKKAQXAFIEYLIEGGPSSG
modifications: Aib2, αMeL13, K17 conjugated to (2-[2-(2-Amino-ethoxy)-ethoxy]-acetyl)2-(γ-Glu)-CO-(CH2)16-CO2H, Aib20, C-terminal amide (NH2)
B8: Example 303 (peptide)
peptide: B7 peptide with K16E
modifications: Aib2, αMeL13, K17 conjugated to (2-[2-(2-Amino-ethoxy)-ethoxy]-acetyl)2-(γ-Glu)-CO-(CH2)16-CO2H, Aib20, C-terminal amide (NH2)
B9: Example 301 (peptide)
peptide: B7 peptide with F6X, X13L
modifications: Aib2, αMeF6, K17 conjugated to (2-[2-(2-Amino-ethoxy)-ethoxy]-acetyl)2-(γ-Glu)-CO-(CH2)16-CO2H, Aib20, C-terminal amide (NH2)
B10: Example 302 (peptide)
peptide: B7 peptide with F6X, X13L
modifications: Aib2, αMeF(2F)6, K17 conjugated to (2-[2-(2-Amino-ethoxy)-ethoxy]-acetyl)2-(γ-Glu)-CO-(CH2)16-CO2H, Aib20, C-terminal amide (NH2)

Target: human GLP-1 receptor (human, UniProt P43220 24-463)
Assay: cell-based or functional assay

In order of rising “hGLP1R GTPgS % Top” value:
1. B5  47.8%
2. B3  66.2%
3. B6  66.5%
4. B2  70.2%
5. B8  74.3%
6. B1  83.4%
7. B7  85.6%
8. B4  90.2%
9. B9  91.4%
10. B10  98.6%

In order of rising “hGLP1R GTPgS Rel EC50” value:
1. B10  0.268 nM
2. B4  0.377 nM
3. B7  0.405 nM
4. B2  0.432 nM
5. B9  0.435 nM
6. B1  0.442 nM
7. B3  0.466 nM
8. B8  0.547 nM
9. B6  0.651 nM
10. B5  1.05 nM

Target: Pro-Link-tagged Human GLP-1R (human, UniProt P43220 24-463)
Assay: cell-based or functional assay

In order of falling “hGLP1R B-Arrestin2 % Top” value:
1. B10  98.4%
2. B9  93.7%
3. B4  82.5%
4. B1  58.2%
5. B8  47.7%
6. B7  38.4%
7. B3  20%

Going from B1 to B2, the “hGLP1R B-Arrestin2 Rel EC50” value rises from 54.8 nM to > 10300 nM.

Going from B3 to B4, the “hGLP1R B-Arrestin2 Rel EC50” value falls from 23.8 nM to 7.78 nM (3.1-fold).

B5 and B6 cannot be ordered by “hGLP1R B-Arrestin2 Rel EC50” value: > 10900 nM for the first, > 12000 nM for the second.

Compared with B7, B8 is 3.3-fold higher in “hGLP1R B-Arrestin2 Rel EC50” value: 5.4 nM for the first, 17.9 nM for the second.

B9 and B10 are within 1.5-fold of each other in “hGLP1R B-Arrestin2 Rel EC50” value: 2.67 nM for the first, 2.19 nM for the second.
